# Reference: paper PMC7817217
# Molecular target: bACE2-Rm fused with eGFP, expressed on the surface of HEK293T cells (Rhinolophus macrotis)
# Assay: flow cytometry on cells
substance,measurement,value
SARS-CoV-2 spike protein receptor binding domain (RBD) (from UniProt P0DTC2 319-541) (domain or fragment),percent of cells stained positive,34.5%
